Publication PMC10319324
Positions count from the first letter of the chain named. In names and notes the source's numbering stands.

What was measured:
[1] = target: bovine 20S proteasome (bovine) (UniProt Q2YDE4)
[2] = target: T1, recombinant wildtype human PI31 (Proteasome Inhibitor of 31,000 Da) (human), Q92530; assay: mass photometry; monomer to dimer; His-PI31 diluted to 40 nM total monomer in PBS, recorded immediately after mixing (TwoMP, Refeyn); peaks at 36 to 37 and 56 to 59 kDa; settings: remark: other sources report otherwise
T1 chain: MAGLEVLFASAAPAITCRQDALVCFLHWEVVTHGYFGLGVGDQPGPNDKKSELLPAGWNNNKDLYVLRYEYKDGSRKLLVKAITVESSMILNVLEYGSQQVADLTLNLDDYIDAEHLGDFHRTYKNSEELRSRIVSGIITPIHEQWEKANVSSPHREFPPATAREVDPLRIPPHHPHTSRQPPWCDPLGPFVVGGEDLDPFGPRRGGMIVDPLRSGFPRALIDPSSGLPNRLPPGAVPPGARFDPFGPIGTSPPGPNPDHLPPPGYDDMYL

B1: human PI31 D197A point mutant (natural protein)
chain: T1 chain with D197A
[1]
  inhibition of β5-specific peptide hydrolysis by 20S (143 nM 20S, 1.4 μM PI31) (times less well than wildtype hPI31): 3

B2: recombinant wildtype human PI31 (Proteasome Inhibitor of 31,000 Da), Q92530 1-271 (natural protein)
chain: T1 chain
[2]
  [monomer]/[M]T ratio: 0.32
  dimer counts (mass photometry): 2060 counts
  monomer counts (mass photometry): 2180 counts
  stoichiometry N: 2
